Data from US20170115280.

Biological target: reconstituted nascent HDL (rHDL) particle made with isolated human apoA-I (UniProt P02647)
Sequence (P02647 25-267): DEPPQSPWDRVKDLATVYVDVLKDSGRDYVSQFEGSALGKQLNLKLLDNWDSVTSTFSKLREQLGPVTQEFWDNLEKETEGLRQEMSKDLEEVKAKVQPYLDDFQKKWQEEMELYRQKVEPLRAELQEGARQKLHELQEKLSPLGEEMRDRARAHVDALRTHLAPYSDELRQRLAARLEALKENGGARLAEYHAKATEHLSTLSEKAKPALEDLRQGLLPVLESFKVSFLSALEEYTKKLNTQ

Row | Substance | stability of arylesterase activity at 37° C. in the presence of HDL | rate of inactivation of PON1 (arylesterase activity) with EDTA and β-mercaptoethanol in the presence of rHDL
1 | rPON1 Y293K mutant | the Y293K PON1 mutant shows the fastest rate of inactivation | 
2 | rPON1 Y294K mutant | the rate of Y293K loss in activity is faster than either Y294K or WT PON1, and comparison of Y293K vs. Y294K shows significant difference as well | 
3 | rPON1 pan K mutant (Leu9→Lys9, Tyr185→Lys185 and Tyr293→Lys293) with C-terminal His8 tag |  | no protective effects were observed when the pan K rPON1 mutant was incubated with either rHDL or detergent
4 | recombinant paraoxonase 1 (PON1) variant G3C9, His-tagged (rPON1 WT) | when HDL is present, WT PON1 is quite stable at 37 °C | A very slow inactivation of WT rPON1 was observed in the presence of rHDL
